Measured values reported in patent publication US20060199251.

T1: Ac-IEPD-pNA (N-acetyl-L-isoleucyl-L-glutamyl-L-prolyl-L-aspartyl-p-nitroaniline)
T1 chain: IEPD

B1: GrB-H6 C228F (activated human Granzyme B variant, Cys228 (chymotrypsinogen numbering) to Phe, C-terminal hexa-His tag) (protein)
chain: MGSIEPDIIGGHEAKPHSRPYMAYLMIWDQKSLKRCGGFLIQDDFVLTAAHCWGSSINVTLGAHNIKEQEPTQQFIPVKRPIPHPAYNPKNFSNDIMLLQLERKAKRTRAVQPLRLPSNKAQVKPGQTCSVAGWGQTAPLGKHSHTLQEVKMTVQEDRKCESDLRHYYDSTIELCVGDPEIKKTSFKGDSGGPLVCNKVAQGIVSYGRNNGMPPRAFTKVSSFVHWIKKTMKRYLNSHHHHHH
B2: purified bovine blood clotting factor Xa (protein)
chain: ANSFLEEVKQGNLERECLEEACSLEEAREVFEDAEQTDEFWSKYKDGDQCEGHPCLNQGHCKDGIGDYTCTCAEGFEGKNCEFSTREICSLDNGGCDQFCREERSEVRCSCAHGYVLGDDSKSCVSTERFPCGKFTQGRSRRWAIHTSEDALDASELEHYDPADLSPTESSLDLLGLNRTEPSAGEDGSQVVRIVGGRDCAEGECPWQALLVNEENEGFCGGTILNEFYVLTAAHCLHQAKRFTVRVGDRNTEQEEGNEMAHEVEMTVKHSRFVKETYDFDIAVLRLKTPIRFRRNVAPACLPEKDWAEATLMTQKTGIVSGFGRTHEKGRLSSTLKMLEVPYVDRSTCKLSSSFTITPNMFCAGYDTQPEDACQGDSGGPHVTRFKDTYFVTGIVSWGEGCARKGKFGVYTKVSNFLKWIDKIMKARAGAAGSRGHSEAPATWTVPPPLPL

Tests used:
[1] = molecular target: T1, Ac-IEPD-pNA …

Sequence of H6-IEGR-RAP (P30533 whole entry, the tested form may be a part): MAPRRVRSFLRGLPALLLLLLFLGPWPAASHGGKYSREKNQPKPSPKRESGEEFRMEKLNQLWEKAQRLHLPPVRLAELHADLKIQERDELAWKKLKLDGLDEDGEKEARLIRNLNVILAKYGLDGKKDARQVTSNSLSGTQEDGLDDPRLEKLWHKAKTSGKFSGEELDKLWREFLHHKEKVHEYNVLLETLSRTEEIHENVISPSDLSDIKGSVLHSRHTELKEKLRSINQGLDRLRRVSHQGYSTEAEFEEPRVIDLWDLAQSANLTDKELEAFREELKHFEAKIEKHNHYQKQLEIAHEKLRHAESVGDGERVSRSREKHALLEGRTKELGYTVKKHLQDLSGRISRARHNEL

Row | Protein | cleavage of fusion protein, SDS PAGE, 6 hours, protease:fusion protein 1:500 (H6-TripUB IEPD↓EG) | time to complete cleavage, protease to substrate ratio 1:500 (H6-TripUB IEPD↓EG) | cleavage by immobilized enzyme, non-reducing SDS-PAGE, room temperature over night (H6-TripUB IQAD↓SG) | cleavage of fusion protein, SDS PAGE, 96 hours at 23° C., protease:fusion protein 1:500 (H6-TripUB IEPD↓SP) | fusion protein cleaved, SDS PAGE, 48 hours at 21° C., protease:fusion protein 1:500 (H6-TripUB IEPD↓SP) | cleavage of fusion protein, SDS PAGE, 24 hours at 23° C., protease:fusion protein 1:500 (H6-TripUB IEPD↓TQ) | KM (µM), colorimetric assay, Lineweaver-Burk plot, 100 mM HEPES pH 7.75, 20 nM enzyme [1] [µM] | kcat [1] [s⁻¹] | kcat/KM (10^4 s^-1M^-1) [1] [s^-1M^-1] | cleavage by immobilized enzyme, non-reducing SDS-PAGE, room temperature over night (H6-TripUB IQAD↓SP) | fusion protein cleaved, SDS PAGE, 48 hours at 21° C., protease:fusion protein 1:500 (H6-TripUB IEPD↓EP) | fusion protein cleaved, SDS PAGE, 50 hours at 21° C., protease:fusion protein 1:500 (H6-TripUB IEPD↓EP) | fusion protein cleaved, SDS PAGE, 6 hours at 23° C., protease:substrate 1:1000 (H6Ubi-IEPD-ApoA1) | cleavage of fusion protein, SDS PAGE, 24 hours at 23° C., protease:fusion protein 1:500 (H6-TripUB IEPD↓IV) | cleavage of fusion protein, SDS PAGE, ½ hour at 23° C., protease:fusion protein 1:1000 (H6-IEGR-RAP) | degradation of fusion protein, SDS PAGE, 27 hours at 23° C. (H6-IEGR-RAP) | fusion protein cleaved, SDS PAGE, 6 hours at 23° C., protease:substrate 1:1000 (H6Ubi-IEGR-ApoA1) | time to complete cleavage, 23° C., protease:substrate 1:1000 (H6Ubi-IEGR-ApoA1)
1 | B1 | after only 6 hours the cleavage has been completed | it takes less than 5 hours for GrB-H6 C228F to complete the cleavage of H6-TripUbi IEPD↓EG | For all twelve cleavage experiments the fusion proteins are cleaved to give a single product corresponding to TripUbi moiety from which the H6 fusion partner has been cleaved off | the cleavage is almost 100% complete after 96 hours | After 48 hours approximately 40% has been cleaved at 21 °C | this is app. 100% completed after only 24 hours | 27 | 4.85 | 180000 | For all twelve cleavage experiments the fusion proteins are cleaved to give a single product corresponding to TripUbi moiety from which the H6 fusion partner has been cleaved off | after 48 hours at 21 °C approximately 35-40% has been cleaved | after 50 hours at 21 °C approximately 40% has been cleaved | The GrB substrate, H6Ubi-IEPD-ApoA1, is approximately 100% cleaved after only 6 hours incubation at 23 °C | This is also the case for the cleavage of H6-TripUB IEPD↓IV (app. 100% completed after only 24 hours) |  |  |  | 
2 | B2 |  |  |  |  |  |  |  |  |  |  |  |  |  |  | After only ½ hour almost all of the fusion protein had been cleaved to give the correct product for both incubations | all of the fusion protein had been degraded to give a variety of smaller fragments after 27 hours, and there is no correctly cleaved product left | only a small fraction of the FXa substrate, H6Ubi-IEGR-ApoA1, has been cleaved after 6 hours | FXa requires more than 48 hours to complete the cleavage of the FXa substrate
